The values below come from the supplement of paper PMC12042874.

± gives the uncertainty stated by the source.

The nature of the data set: amyloid nucleation score (Sup35N fusion, yeast selection) (log enrichment); library NNK2; higher = more nucleation; inactive = no reads after selection. In short, it runs like this: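 Peptides of 20 random codons, each fused to Sup35N, were expressed in psi-negative yeast. Cells were induced with 100 μM copper sulfate for 24 hours and grown 7 days at 30°C on medium lacking adenine and uracil, and plasmid inserts before and after selection were Illumina-sequenced. Nucleation scores are DiMSum log enrichments of output over input reads, centred on the mode score of non-aggregating sequences, and sequences under 100 input reads were excluded.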
Substance NNFSVSFLGVDVF yielded an amyloid nucleation score of -0.199 ± 0.74.

As for DCMLNGLRWEMMLYKLDCFT, the amyloid nucleation score amounted to 0.189 ± 0.64.

The substance ARMITWGRNMILTPSPMRHK gave an amyloid nucleation score of -0.783 ± 1.

As for YRVAMYMDSVFIMYAYDIPN, the amyloid nucleation score was 2.1 ± 0.14.

In turn, LFSLTGIKLE registered an amyloid nucleation score of -0.483 ± 1.1.

Substance ESRHSSLFHHPE registered an amyloid nucleation score of 0.119 ± 0.65.

Substance YMTEIANKRSPRACWIGERM displayed an amyloid nucleation score of -0.156 ± 0.79.

Consider DRWLVFPSNRPVFVMDRFNG, for which the amyloid nucleation score was -0.414 ± 0.64.

LNGSADTLD had an amyloid nucleation score of -0.755 ± 0.41.

For LSLFLLVICSSAFM, the amyloid nucleation score entry is “inactive”.

In turn, NTSFRGTTTRKSY returned an amyloid nucleation score of -0.233 ± 0.29.

INWSHRGIISLDERMIIQYV had an amyloid nucleation score of 0.154 ± 0.65.

As to FFGYAGCNRPVNLSYGGRFN, the amyloid nucleation score is -0.952 ± 0.32.

In turn, NDSMDHRQSYWGLNPFVYIV had an amyloid nucleation score of 0.158 ± 0.65.

As for YFLGMVPSFSLWYETSQSQC, the amyloid nucleation score was -0.768 ± 0.42.

Consider PTSCSSRN, for which the amyloid nucleation score is -0.055 ± 1.1.

LRQGCFQTVKLDYRES: the amyloid nucleation score was -0.032 ± 1.1.

Consider FNYYLCTPIKVGTCPCVDFR, for which the amyloid nucleation score was 7.17 ± 0.075.

AGELGLNIYVLSIYK yielded an amyloid nucleation score of 5.26 ± 0.067.

For the substance NLPSWLVGRRSVWECYRLDT, the amyloid nucleation score turned out to be 0.043 ± 1.

Substance IYRRPMENI yielded an amyloid nucleation score of -0.389 ± 0.36.

In the case of DFSMIGSEKVAPGKNPDASL, the amyloid nucleation score was determined as 0.22 ± 0.57.

As for VGSVK, the amyloid nucleation score was -0.394 ± 1.1.

With PGSLSLIINIKCTTAKDRTL, the amyloid nucleation score is 2.79 ± 0.13.

Substance WFSVVILLNSTMEYYQYLV yielded an amyloid nucleation score of -0.128 ± 0.45.

Take TVNLVFSTRG: the amyloid nucleation score was determined as 4.64 ± 0.059.

The substance CSDRSICFANSYFEF returned an amyloid nucleation score of -0.101 ± 0.63.

The substance CNTLLTFNYNAYVIEVM came in with an amyloid nucleation score of 0.839 ± 0.17.

LHPLVSLVVHTFMPEVRLVL: the amyloid nucleation score entry was “inactive”.

LLWWMCQYEIFWDKMLYLES showed an amyloid nucleation score of 0.074 ± 1.

Regarding AWETFELVLY, the amyloid nucleation score was -0.145 ± 0.76.

PAYLDPCTSFSVILAMVLLW returned an amyloid nucleation score of 0.697 ± 0.55.

The substance MCVLECFDAGSGYLR yielded an amyloid nucleation score of 1.06 ± 0.59.

With CIYVYSLVWM, the amyloid nucleation score was 2.42 ± 0.2.

Consider FGGIASMMFVEMRRGSINEM, for which the amyloid nucleation score was determined as 3.51 ± 0.045.

On to KSLKCFHLVRFTFS, for which the amyloid nucleation score was -0.492 ± 0.36.

Take DFMRDFWKDSDNQEVFLLPI: the amyloid nucleation score is -0.885 ± 0.44.

In the case of RLKMEICDLTFPAQLFQTFG, the amyloid nucleation score worked out at 3.49 ± 0.079.

In turn, LYQNSTILWLCCLWPVPYSG came in with an amyloid nucleation score of 9.921 ± 0.076.

Regarding LTNEI, the amyloid nucleation score is -0.515 ± 1.

Substance FPVSVTTISPNIYGQPNTWC had an amyloid nucleation score of -1.41 ± 0.45.

For LLDLALRLTMGLITKHEANK, the amyloid nucleation score is 3.61 ± 0.064.

The substance SCALF had an amyloid nucleation score of -0.679 ± 1.1.

On to EGRVFTGEGRYECCSCFGLL, for which the amyloid nucleation score was -0.752 ± 0.64.

Substance GSYVDEVSIYPDEACSYRLA showed an amyloid nucleation score of -0.187 ± 0.76.

On to NIRWRGNPFPCIVRNSVGEI, for which the amyloid nucleation score came out at 0.097 ± 0.31.

Turning to KMAMTVLILPYVPGQLRLTE, the amyloid nucleation score came out at 3.12 ± 0.1.

For the substance SMPLASSMSKHNHWHLV, the amyloid nucleation score worked out at 0.13 ± 0.35.

Turning to IKDMTKVIATGFCLCITLVC, the amyloid nucleation score stood at 0.592 ± 0.66.

In turn, WWYGGLEMGFIICFRIPNVI gave an amyloid nucleation score of -0.606 ± 1.1.

The substance LLEYNIFLRSIVFDGREEWA had an amyloid nucleation score of 3.18 ± 0.058.

The substance IRFDFSC displayed an amyloid nucleation score of 1.51 ± 0.17.

For VMLRYNSYGNYLLRWHTDDA, the amyloid nucleation score is -0.843 ± 0.44.

FTSFCMMKGPGLY yielded an amyloid nucleation score of -1.44 ± 1.1.

With GLIGSERNSRVWRNYQMSCS, the amyloid nucleation score turned out to be 2.99 ± 0.11.

Take IEGREGCARDNKGYYTALLL: the amyloid nucleation score result is “inactive”.

On to FNMFWVLGFTSRGTRGYSTS, for which the amyloid nucleation score came out at 3.9 ± 0.051.

HPTLEPGKHYLRVSKSNTSR: the amyloid nucleation score is 0.404 ± 0.26.

For CDLFGSCVDIWDTYINLSDR, the amyloid nucleation score is -0.573 ± 1.1.

ENSANNLGMFERSSRYRLSG displayed an amyloid nucleation score of 0.356 ± 0.34.

The substance TGAWLALFLGRHAKWLALFM came in with an amyloid nucleation score of 0.817 ± 0.26.

WSLYLVVLAQ: the amyloid nucleation score stood at 0.294 ± 0.51.

Regarding PEILMSDGIRKLCSVYVFLR, the amyloid nucleation score result was “inactive”.

RNLGLMVTILSAELFRRCLW displayed an amyloid nucleation score of -0.812 ± 0.23.

In turn, PDSGVSDESHLRCLPGVPRI had an amyloid nucleation score of 0.066 ± 0.28.

Regarding CVDSKWLYFGRWSTQVIDI, the amyloid nucleation score was -0.196 ± 1.

NDKTYLPGRHSYGSCYVIVW displayed an amyloid nucleation score of 0.561 ± 0.64.

The substance GKPNGGYSTAK had an amyloid nucleation score of 0.777 ± 0.4.

Substance WSGQPGFSTYGICLLSVRLK displayed an amyloid nucleation score of -0.286 ± 0.65.

Regarding LFLQVGTAVGIRYINGAYLV, the amyloid nucleation score was -0.959 ± 0.38.

On to ISINTICSNVDIGYGVAVFH, for which the amyloid nucleation score turned out to be 3.92 ± 0.071.

On to GCVRIMPCVFGSVRWHWYVW, for which the amyloid nucleation score is 1.28 ± 0.25.

As for SSDYGIQPCFTTTSLLLLFN, the amyloid nucleation score was -0.914 ± 0.48.

The substance PNDAN gave an amyloid nucleation score of 0.043 ± 0.28.

Take LVAKHSG: the amyloid nucleation score worked out at 0.693 ± 0.27.

Take AIQQTQLLCIENMVGLFVVR: the amyloid nucleation score amounted to 0.58 ± 0.64.

Substance SCFGNVYGGVVLQAFGGVVS came in with an amyloid nucleation score of 0.082 ± 1.1.

Turning to KARSRLLVFYKYTKGIWAQS, the amyloid nucleation score was -0.147 ± 1.1.

As for LAQRSNFRASCWINFLGWLD, the amyloid nucleation score result was “inactive”.

Substance EHRSVRDLKRMQCEIYSRGV had an amyloid nucleation score of 0.191 ± 0.8.

The substance PGEECGGLSITIEWGTSSS came in with an amyloid nucleation score of 0.211 ± 0.5.

The substance VCCVP showed an amyloid nucleation score of -1.09 ± 1.1.

Consider YQRMPSIYGEVVCHQSCQGV, for which the amyloid nucleation score is -0.069 ± 0.45.

Substance LVYLELTELQLCDAFAKVKN yielded an amyloid nucleation score of 0.133 ± 0.25.

The substance TFWTANISSADTSSFFY had an amyloid nucleation score of 0.272 ± 0.34.

On to SRKLRLVRGFWG, for which the amyloid nucleation score was -0.067 ± 0.62.

The substance QWRINSRLFG displayed an amyloid nucleation score of -0.266 ± 0.22.

In turn, SLGIVNSHIFAMWTFSSMGA registered an amyloid nucleation score of 3.74 ± 0.065.

In turn, VTWALCAGGRQFVTFSS showed an amyloid nucleation score of 8.505 ± 0.045.

For the substance YCSYQVVRGRPSVAGRDNLQ, the amyloid nucleation score is -0.424 ± 0.63.

Consider IIIIATEHK, for which the amyloid nucleation score was 3.48 ± 0.16.

In the case of ANYMRYYSGLICFTESRYMS, the amyloid nucleation score is 1.5 ± 0.17.

Substance VICCEVLPSAPLSLWMNLKV came in with an amyloid nucleation score of -0.469 ± 1.1.

In turn, NVLRFSSTSLYGLAFLAEGS came in with an amyloid nucleation score of -0.577 ± 0.3.

Substance NVERSFGAVGQVRIEEYARD had an amyloid nucleation score of 0.266 ± 1.

ISLNLVVN registered an amyloid nucleation score of -0.272 ± 0.8.

VLRGPS registered an amyloid nucleation score of 0.302 ± 0.56.

The substance SKLRYNFR gave an amyloid nucleation score of -0.573 ± 0.32.

In turn, CINVYKY came in with an amyloid nucleation score of 6.768 ± 0.026.

The substance QLPAHFFGLFCLFP registered an amyloid nucleation score of -1.41 ± 0.73.

For the substance KATRTFY, the amyloid nucleation score was 0.495 ± 0.34.

Turning to MINFHKHGLTI, the amyloid nucleation score was -0.482 ± 0.35.

Substance SARHDSRVYNWGLFMKYDVN gave an amyloid nucleation score of 4.12 ± 0.084.

In turn, NWGWFVSLFYGVAAGDHSRT yielded an amyloid nucleation score of 0.955 ± 0.37.
